Source: the RNAGym collection of RNA variant scans (doi:10.7554/elife.80360)

B1: Twister Ribozyme (parent)
chain: AACACUGCCAAUGCCGGUCCCAAGCCCGGAUAAAAGUGGAGGGGGCGG

Variants of: B1
Test: self-cleavage, relative activity (ratio to wild type); higher = more cleavage; co-transcriptional

Compared with C9U U12G, C9U U12A is higher in self-cleavage: 0.501 for the first, 0.794 for the second.

First: A10U C27G
Second: A10U C27U
The self-cleavage of the first is lower: 0.057 for the first, 0.93 for the second.

Going from A10C G38A to A10U A34U, the self-cleavage falls from 0.947 to 0.818.

First: C9G C25G
Second: C9G C25U
The self-cleavage of the first is lower: 0.0708 for the first, 0.194 for the second.

Compared with C9G C25A, A10U U18G is higher in self-cleavage: 0.0478 for the first, 0.115 for the second.

Going from A10U U18A to A10U U18C, the self-cleavage falls from 0.546 to 0.506.

Compared with A11C C46G, A11C C46A is lower in self-cleavage: 0.917 for the first, 0.908 for the second.

First: A11C C46U
Second: C9U A30C
The self-cleavage of the first is higher: 0.736 for the first, 0.526 for the second.

Going from C9U A30G to C9G G17C, the self-cleavage falls from 0.865 to 0.0619.

Going from C9G G17U to A10C G45U, the self-cleavage rises from 0.0981 to 0.842.

Going from C9G G47A to C9G G47U, the self-cleavage falls from 0.38 to 0.278.

Going from C9G G47C to A10U A40U, the self-cleavage falls from 0.186 to 0.111.

Compared with A10U A40C, A10C C21G is lower in self-cleavage: 0.305 for the first, 0.0689 for the second.

First: C9G U31A
Second: C9U C46A
The self-cleavage of the first is higher: 0.648 for the first, 0.549 for the second.

Going from C9U C46G to A10U A35U, the self-cleavage rises from 0.651 to 0.89.

First: A10C C46G
Second: C9U A23C
The self-cleavage of the first is higher: 0.714 for the first, 0.0976 for the second.

First: A11G A33U
Second: A10U G44C
The self-cleavage of the first is higher: 0.955 for the first, 0.937 for the second.

Going from A10U G44U to A10U G28U, the self-cleavage falls from 0.971 to 0.929.

Going from A10C G24C to A10G U12C, the self-cleavage rises from 0.0859 to 0.847.

First: A11C A33U
Second: C9G C46G
The self-cleavage of the first is higher: 0.853 for the first, 0.576 for the second.

Going from C9U A33G to C9U A33U, the self-cleavage rises from 0.548 to 0.751.

Going from C9U A33C to C9G G39C, the self-cleavage falls from 0.601 to 0.132.

Going from A11C C14U to A11C C14A, the self-cleavage falls from 0.909 to 0.69.

Going from A11C G42U to A11C G42A, the self-cleavage rises from 0.136 to 0.248.

First: C9G G38A
Second: C9G G38C
The self-cleavage of the first is lower: 0.278 for the first, 0.4 for the second.

First: A11C C20G
Second: A11C C20U
The self-cleavage of the first is lower: 0.131 for the first, 0.91 for the second.

First: A10G G47C
Second: A10G G47A
The self-cleavage of the first is lower: 0.809 for the first, 0.821 for the second.

First: A10U G47C
Second: A10U G47U
The self-cleavage of the first is lower: 0.596 for the first, 1.01 for the second.

Going from A10U G47A to A10U G16C, the self-cleavage falls from 0.946 to 0.419.

Going from A10U G16U to A11C G48C, the self-cleavage rises from 0.802 to 1.05.

Compared with A11C G48A, A11C G48U is higher in self-cleavage: 0.998 for the first, 1.06 for the second.

Compared with A10C U12G, C9U G24C is lower in self-cleavage: 1.06 for the first, 0.0718 for the second.

Going from C9U G24A to A11C G17C, the self-cleavage rises from 0.0648 to 0.0996.

First: A10G A35U
Second: A10G A35C
The self-cleavage of the first is lower: 0.943 for the first, 1.17 for the second.

First: A10G G29U
Second: A10G G29C
The self-cleavage of the first is higher: 1.12 for the first, 1.01 for the second.

Compared with A10U G17C, A10U G17A is higher in self-cleavage: 0.11 for the first, 0.532 for the second.

Going from A10G C14G to A10G C14U, the self-cleavage rises from 0.0768 to 1.02.

Going from C9G G36U to C9G G36C, the self-cleavage rises from 0.137 to 0.148.

First: A10U A32U
Second: A10U A32G
The self-cleavage of the first is lower: 0.842 for the first, 0.896 for the second.

First: A10U A32C
Second: C9U G16C
The self-cleavage of the first is higher: 0.983 for the first, 0.13 for the second.

First: A11C G24C
Second: A11C G24U
The self-cleavage of the first is lower: 0.0648 for the first, 0.0789 for the second.

Going from A11C G24A to C9U, the self-cleavage rises from 0.0913 to 0.754.

Going from C9U G41A to C9U G41U, the self-cleavage rises from 0.121 to 0.187.

First: C9G G44C
Second: A11C G29U
The self-cleavage of the first is lower: 0.395 for the first, 0.681 for the second.

Going from A11C G29A to C9G G16C, the self-cleavage falls from 0.531 to 0.0741.

First: C9G G16A
Second: A10G G42C
The self-cleavage of the first is lower: 0.329 for the first, 0.618 for the second.

First: A10G G42U
Second: A10U U31G
The self-cleavage of the first is lower: 0.493 for the first, 0.948 for the second.

Compared with A11C A22G, A11C A22C is higher in self-cleavage: 0.168 for the first, 0.929 for the second.

Compared with A11C A40U, A11C A40G is lower in self-cleavage: 0.153 for the first, 0.12 for the second.

First: A11C A40C
Second: A10C A22C
The self-cleavage of the first is lower: 0.14 for the first, 0.993 for the second.

Compared with A11C G36A, A11C G36U is lower in self-cleavage: 0.87 for the first, 0.8 for the second.

Going from A10C C25A to A10C C25G, the self-cleavage rises from 0.0743 to 0.31.

First: A10C C25U
Second: A11C G41U
The self-cleavage of the first is higher: 0.782 for the first, 0.42 for the second.

Going from A11C G41C to A10C A35G, the self-cleavage rises from 0.255 to 0.965.

First: A10U U12A
Second: A10C A33C
The self-cleavage of the first is lower: 0.986 for the first, 1.14 for the second.

Compared with A10C G16A, A10C G16C is lower in self-cleavage: 0.726 for the first, 0.526 for the second.

Compared with C9U A10G, A10G G39A is lower in self-cleavage: 0.872 for the first, 0.564 for the second.

Going from A10G A32U to A10G A32G, the self-cleavage rises from 1.01 to 1.15.

Compared with A11G C15A, C9G G45C is lower in self-cleavage: 0.567 for the first, 0.171 for the second.

Compared with C9G G45U, A11C U31G is higher in self-cleavage: 0.205 for the first, 0.917 for the second.

First: A11C U31A
Second: A10G G48U
The self-cleavage of the first is lower: 0.502 for the first, 1.15 for the second.

First: A10G G48A
Second: C9U G45A
The self-cleavage of the first is higher: 0.902 for the first, 0.547 for the second.

Going from C9U G45U to A10G G13U, the self-cleavage rises from 0.328 to 0.79.

Going from A10G G13A to A10G G13C, the self-cleavage falls from 1.09 to 0.835.

Going from C9G U18A to C9G U18G, the self-cleavage falls from 0.108 to 0.0467.

First: C9G U18C
Second: A10G G38A
The self-cleavage of the first is lower: 0.0886 for the first, 0.89 for the second.

Going from A10G G16U to A10G G16C, the self-cleavage falls from 1.14 to 0.567.

First: C9G C27A
Second: C9G C27U
The self-cleavage of the first is lower: 0.098 for the first, 0.326 for the second.

Compared with C9G C27G, A11C A23C is lower in self-cleavage: 0.0899 for the first, 0.0766 for the second.

Compared with A10C A40G, A10C A40U is lower in self-cleavage: 0.181 for the first, 0.155 for the second.

First: C9U G38A
Second: C9U G38C
The self-cleavage of the first is lower: 0.177 for the first, 0.509 for the second.

First: A10U C25G
Second: A11C C25A
The self-cleavage of the first is higher: 0.194 for the first, 0.0918 for the second.

First: A11C C25U
Second: A11C C25G
The self-cleavage of the first is higher: 0.733 for the first, 0.115 for the second.

Compared with A10G A23C, A10G A23G is higher in self-cleavage: 0.714 for the first, 0.879 for the second.

First: C9U U31G
Second: A10C C14U
The self-cleavage of the first is lower: 0.69 for the first, 1.01 for the second.

Going from A10C C14G to A10U G13C, the self-cleavage falls from 0.289 to 0.211.

Going from A10U G13A to A10G G24U, the self-cleavage falls from 0.913 to 0.18.

First: A10G G24C
Second: A10U C19U
The self-cleavage of the first is lower: 0.131 for the first, 0.92 for the second.

Going from C9U C21U to C9U C21G, the self-cleavage falls from 0.0907 to 0.0888.

Going from C9G C26U to C9G C26A, the self-cleavage rises from 0.0719 to 0.115.

Compared with C9G C26G, A10C G44U is higher in self-cleavage: 0.083 for the first, 0.859 for the second.

Compared with C9U C14G, A11G A40U is higher in self-cleavage: 0.0927 for the first, 0.126 for the second.

First: A11G A40C
Second: A11C G44U
The self-cleavage of the first is lower: 0.214 for the first, 0.791 for the second.

A10C U37C showed a self-cleavage of 0.767.
